Test results taken from patent US20020119521A1.

Tests used:
Assay in all cases: cell-based or functional assay
[1] = molecular target: Full length MmRXR (mouse Mus musculus RXR alpha) (Mus musculus) (UniProt P28700)
[2] = molecular target: VP16AD-MmRXRDEF chimeric polypeptide (Mus musculus)
[3] = molecular target: VP16AD-CfUSPDEF chimeric polypeptide (Choristoneura fumiferana)
[4] = molecular target: VP16AD-CfEcRCDEF chimeric polypeptide (Choristoneura fumiferana)
[5] = molecular target: VP16AD-DmEcRCDEF chimeric polypeptide (Drosophila melanogaster)
[6] = molecular target: T1, B42AD:MmRXR-DEF fusion (Mus musculus)
T1 sequence: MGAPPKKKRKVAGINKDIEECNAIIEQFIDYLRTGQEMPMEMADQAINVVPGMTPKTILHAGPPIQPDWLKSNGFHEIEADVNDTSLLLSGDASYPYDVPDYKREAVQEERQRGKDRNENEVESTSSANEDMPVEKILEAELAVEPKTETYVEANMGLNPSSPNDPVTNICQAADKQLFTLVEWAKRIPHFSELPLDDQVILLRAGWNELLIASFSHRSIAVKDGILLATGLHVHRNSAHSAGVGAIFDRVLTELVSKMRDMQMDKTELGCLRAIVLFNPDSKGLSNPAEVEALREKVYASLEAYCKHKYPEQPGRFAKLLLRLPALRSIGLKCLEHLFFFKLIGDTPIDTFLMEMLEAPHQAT

Molecule: Drosophila melanogaster EcR with a modified DNABD fused to VP16AD (DmVgRXR system, Invitrogen) (receptor)
- Mean Fold Activation Through N-(2-ethyl-3-methoxybenzoyl)-N'-(3,5-dimethylbenzoyl)-N'-t-butylhydrazine; pIND(SP1)LacZ reporter, 3T3 cells [1]: 21 fold
- Mean Fold Activation Through N-(2-ethyl-3-methoxybenzoyl)-N'-(3,5-dimethylbenzoyl)-N'-t-butylhydrazine; pIND(SP1)LacZ reporter, 293 cells [1]: 21 fold
- Mean Fold Activation with 50 µM N-(2-ethyl-3-methoxybenzoyl)-N'-(3,5-dimethylbenzoyl)-N'-t-butylhydrazine; pIND(SP1)LacZ reporter, CHO cells [1]: 14 fold

Molecule: Gal4DBD-CfEcRDEF chimeric polypeptide (receptor)
- Mean Fold Activation Through N-(2-ethyl-3-methoxybenzoyl)-N'-(3,5-dimethylbenzoyl)-N'-t-butylhydrazine; pGAL4RELuc reporter, 3T3 cells [2]: 1120 fold
- Mean Fold Activation Through N-(2-ethyl-3-methoxybenzoyl)-N'-(3,5-dimethylbenzoyl)-N'-t-butylhydrazine; pGAL4RELuc reporter, 293 cells [2]: 125 fold
- Mean Fold Activation with 50 µM N-(2-ethyl-3-methoxybenzoyl)-N'-(3,5-dimethylbenzoyl)-N'-t-butylhydrazine; pGAL4RELuc reporter, CHO cells [2]: 267 fold
- Mean Fold Induction at 1.0 µM Concentration of Muristerone A; switch 1.1 in 3T3 cells [2]: 1 fold
- Mean Fold Induction at 1.0 µM Concentration of N'-(3,4-(1,2-ethylenedioxy)-2-methylbenzoyl)-N'-(3,5-dimethylbenzoyl)-N'-tert-butylhydrazine; switch 1.1 in 3T3 cells [2]: 601 fold
- Mean Fold Induction at 1.0 µM Concentration of N-(2-ethyl-3-methoxybenzoyl)-N'-(3,5-dimethylbenzoyl)-N'-tert-butylhydrazine; switch 1.1 in 3T3 cells [2]: 116 fold
- Mean Fold Induction at 1.0 µM Concentration of Ponasterone A; switch 1.1 in 3T3 cells [2]: 1 fold
- ligand concentration at which transactivation was initiated (non-steroid ligands) [2]: < 1 µM
- ligand concentration at which transactivation was initiated (steroid ligands) [2]: 50 µM
- Mean Fold Activation Through N-(2-ethyl-3-methoxybenzoyl)-N'-(3,5-dimethylbenzoyl)-N'-t-butylhydrazine; pGAL4RELuc reporter, 3T3 cells [3]: 2 fold
- Mean Fold Activation Through N-(2-ethyl-3-methoxybenzoyl)-N'-(3,5-dimethylbenzoyl)-N'-t-butylhydrazine; pGAL4RELuc reporter, 293 cells [3]: 2 fold
- Mean Fold Activation with 50 µM N-(2-ethyl-3-methoxybenzoyl)-N'-(3,5-dimethylbenzoyl)-N'-t-butylhydrazine; pGAL4RELuc reporter, CHO cells [3]: 2 fold

Molecule: Gal4DBD-CfUSPDEF chimeric polypeptide (receptor)
- Mean Fold Activation Through N-(2-ethyl-3-methoxybenzoyl)-N'-(3,5-dimethylbenzoyl)-N'-t-butylhydrazine; pGAL4RELuc reporter, 3T3 cells [4]: 3 fold
- Mean Fold Activation Through N-(2-ethyl-3-methoxybenzoyl)-N'-(3,5-dimethylbenzoyl)-N'-t-butylhydrazine; pGAL4RELuc reporter, 293 cells [4]: 2 fold
- Mean Fold Activation with 50 µM N-(2-ethyl-3-methoxybenzoyl)-N'-(3,5-dimethylbenzoyl)-N'-t-butylhydrazine; pGAL4RELuc reporter, CHO cells [4]: 2 fold

Molecule: Gal4DBD-MmRXRDEF chimeric polypeptide (receptor)
- Mean Fold Activation Through N-(2-ethyl-3-methoxybenzoyl)-N'-(3,5-dimethylbenzoyl)-N'-t-butylhydrazine; pGAL4RELuc reporter, 3T3 cells [5]: 269 fold
- Mean Fold Activation Through N-(2-ethyl-3-methoxybenzoyl)-N'-(3,5-dimethylbenzoyl)-N'-t-butylhydrazine; pGAL4RELuc reporter, 293 cells [5]: 3 fold
- Mean Fold Activation with 50 µM N-(2-ethyl-3-methoxybenzoyl)-N'-(3,5-dimethylbenzoyl)-N'-t-butylhydrazine; pGAL4RELuc reporter, CHO cells [5]: 312 fold
- Mean Fold Activation Through N-(2-ethyl-3-methoxybenzoyl)-N'-(3,5-dimethylbenzoyl)-N'-t-butylhydrazine; pGAL4RELuc reporter, 3T3 cells [4]: 47 fold
- Mean Fold Activation Through N-(2-ethyl-3-methoxybenzoyl)-N'-(3,5-dimethylbenzoyl)-N'-t-butylhydrazine; pGAL4RELuc reporter, 293 cells [4]: 17 fold
- Mean Fold Activation with 50 µM N-(2-ethyl-3-methoxybenzoyl)-N'-(3,5-dimethylbenzoyl)-N'-t-butylhydrazine; pGAL4RELuc reporter, CHO cells [4]: 85 fold
- Mean Fold Induction at 1.0 µM Concentration of Muristerone A; switch 1.3 in 3T3 cells [4]: 1 fold
- Mean Fold Induction at 1.0 µM Concentration of N'-(3,4-(1,2-ethylenedioxy)-2-methylbenzoyl)-N'-(3,5-dimethylbenzoyl)-N'-tert-butylhydrazine; switch 1.3 in 3T3 cells [4]: 54 fold
- Mean Fold Induction at 1.0 µM Concentration of N-(2-ethyl-3-methoxybenzoyl)-N'-3,5-dimethylbenzoyl)-N'-tert-butylhydrazine; switch 1.3 in 3T3 cells [4]: 71 fold
- Mean Fold Induction at 1.0 µM Concentration of Ponasterone A; switch 1.3 in 3T3 cells [4]: 1 fold

Molecule: Truncated CfEcR comprising a partial A/B domain and the complete CDEF domains, fused to VP16AD (CfVgRXR) (receptor)
- Mean Fold Activation Through N-(2-ethyl-3-methoxybenzoyl)-N'-(3,5-dimethylbenzoyl)-N'-t-butylhydrazine; pIND(SP1)LacZ reporter, 3T3 cells [1]: 19 fold
- Mean Fold Activation Through N-(2-ethyl-3-methoxybenzoyl)-N'-(3,5-dimethylbenzoyl)-N'-t-butylhydrazine; pIND(SP1)LacZ reporter, 293 cells [1]: 12 fold
- Mean Fold Activation with 50 µM N-(2-ethyl-3-methoxybenzoyl)-N'-(3,5-dimethylbenzoyl)-N'-t-butylhydrazine; pIND(SP1)LacZ reporter, CHO cells [1]: 27 fold

B1: LexA:CfEcRDEF fusion (receptor)
chain: MKALTARQQEVFDLIRDHISQTGMPPTRAEIAQRLGFRSPNAAEEHLKALARKGVIEIVSGASRGIRLLQEEEEGLPLVGRVAAGEPLLAQQHIEGHYQVDPSLFKPNADFLLRVSGMSMKDIGIMDGDLLAVHKTQDVRNGQVVVARIDDEVTVKRLKKQGNKVELLPENSEFKPIVVDLRQQSFTIEGLAVGVIRNGDWLPECVVPETQCAMKRKEKKAQKEKDKLPVSTTTVDDHMPPIMQCEPPPPEAARIHEVVPRFLSDKLLETNRQKNIPQLTANQQFLIARLIWYQDGYEQPSDEDLKRITQTWQQADDENEESDTPFRQITEMTILTVQLIVEFAKGLPGFAKISQPDQITLLKACSSEVMMLRVARRYDAASDSVLFANNQAYTRDNYRKAGMAYVIEDLLHFCRCMYSMALDNIHYALLTAVVIFSDRPGLEQPQLVEEIQRYYLNTLRIYILNQLSGSARSSVIYGKILSILSELRTLGMQNSNMCISLKLKNRKLPPFLEEIWDVADMSHTQPPPILESPTNL
- fold induction of the LacZ reporter in a yeast two-hybrid assay with GS-E [6]: 1800 fold
